Reference: PMC12420816 (Nature Communications, 2025)

Target: SARS-CoV-2 nsp16 with uncleaved His6-tag (SARS-CoV-2) (UniProt P0DTD1)
Assay: native MS

MERS-CoV nsp7-11 polyprotein, tag-free with authentic termini (domain or fragment)
percent of signal as complex: < 5%
